Measured values from paper PMC13544220, “Glycemic and bodyweight effects of GIPR coding variation reflect differences in surface expression and intrinsic functional impairment” (Science Advances, 2026).

What was measured:
Type in all cases: cell-based, human
[1] = test system: wild-type and variant SNAP-GIPR; assay: Single-concentration GIP cAMP response by HTRF in AD293 cells; conditions: Fig S3F, HTRF, mean;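 also: ratio to experiment-wide average response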
Protocol: (§1) All variants were tested in parallel on each occasion to control for transfection efficiency differences between experiments.

[2] = test system: wild-type and variant SNAP-GIPR; assay: cADDis cAMP imaging in AD293 cells, ensemble, expression-matched and per decile; conditions: Fig S3F, cADDis, mean
Summary of the method: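 Transient SNAP-GIPR plus cADDis BacMam in AD293; 24 h; SNAP-Surface AF647 500 nM, 10 min RT; wide-field 10X imaging at 37°C in KRBH/6 mM glucose/0.1% BSA. Cells failing IBMX/FSK response criteria excluded.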

[3] = test system: wild-type and variant SNAP-GIPR; assay: Surface SNAP-GIPR expression (SNAP-tag labelling) in AD293 cells; conditions: for AD293 Surface: Fig S3E, mean; for Surface SNAP-GIPR expression: sheet Fig 1C;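 as to all read-outs here: scaled to the experimental average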
Summary of the method: (§2)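 Surface GIPR is quantified from wide-field images after labelling intact transfected cells with a membrane-impermeant SNAP probe at 500 nM for 10 min at room temperature. Specific signal, corrected for nontransfected cells, is normalized to the experiment-wide average or to wild-type.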

[4] = test system: wild-type and variant SNAP-GIPR; assay: Single-concentration GIP cAMP response by HTRF in INS-1 cells; conditions: Fig S3E, mean
Protocol: as §1

[5] = test system: wild-type and variant SNAP-GIPR; assay: Constitutive and agonist-mediated internalization, reversible SNAP-tag labelling, AD293 cells; design: key to Internalisation, Vehicle / Internalisation, +GIP / Internalisation, GIP-only: % internalization: residual fluorescence after Mesna vs pre-Mesna; Surface expression: unit not given here; conditions: Mean; for +GIP internalisation (100 nM) / GIP-specific internalisation (100 nM) / Constitutive internalisation (100 nM) / Surface expression: Fig 4E; for +GIP internalisation (100 nM) / GIP-specific internalisation (100 nM): GIP 100 nM; for Internalisation, +GIP / Internalisation, GIP-only / Internalisation, Vehicle: Fig S4C, AD293
Summary of the method: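 % internalization = residual specific fluorescence after Mesna / pre-Mesna value. Imaging in TNE buffer pH 8.6; second image 10 min post-Mesna.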

[6] = test system: wild-type and variant SNAP-GIPR; assay: Surface SNAP-GIPR expression (SNAP-tag labelling) in INS-1 cells; conditions: Fig 4G; Mean
Summary of the method: as §2

[7] = column repeated, paired with cAMP 100 nM

B1: R190Q (protein)
chain: RAETGSKGQTAGELYQRWERYRRECQETLAAAEPPSGLACNGSFDMYVCWDYAAPNATARASCPWYLPWHHHVAAGFVLRQCGSDGQWGLWRDHTQCENPEKNEAFLDQRLILERLQVMYTVGYSLSLATLLLALLILSLFRRLHCTRNYIHINLFTSFMLRAAAILSQDRLLPRPGPYLGDQALALWNQALAACRTAQIVTQYCVGANYTWLLVEGVYLHSLLVLVGGSEEGHFRYYLLLGWGAPALFVIPWVIVRYLYENTQCWERNEVKAIWWIIRTPILMTILINFLIFIRILGILLSKLRTRQMRCRDYRLRLARSTLTLVPLLGVHEVVFAPVTEEQARGALRFAKLGFEIFLSSFQGFLVSVLYCFINKEVQSEIRRGWHHCRLRRSLGEEQRQLPERAFRALPSGSGPGEVPTSRGLSSGTLPGPGNEASRELESYC
modifications: left off: SNAP-tag, end not stated, kept
AD293 100 pM HTRF [1]: 0.272 | AD293 100 nM HTRF [1]: 0.2205 | AD293 100 pM cADDis [2]: -0.9408 | AD293 100 nM cADDis [2]: 9.541 | AD293 Surface [3, 7]: 0.3804 | AD293 Surface ([3]; paired with cAMP 100 pM): 0.3804 | Surface SNAP-GIPR expression ([3]; replicate 1): 0.4051 | Surface SNAP-GIPR expression ([3]; replicate 2): 0.3209 | Surface SNAP-GIPR expression ([3]; replicate 3): 0.5539 | Surface SNAP-GIPR expression ([3]; replicate 4): 0.3598 | Surface SNAP-GIPR expression ([3]; replicate 5): 0.3596 | Surface SNAP-GIPR expression ([3]; replicate 6): 0.3496 | Surface SNAP-GIPR expression ([3]; replicate 7): 0.6994 | Surface SNAP-GIPR expression ([3]; replicate 8): 0.559 | Surface SNAP-GIPR expression ([3]; replicate 9): 0.4541 | Surface SNAP-GIPR expression ([3]; replicate 10): 0.3587 | Surface SNAP-GIPR expression ([3]; replicate 11): 0.3825 | Surface SNAP-GIPR expression ([3]; replicate 12): 0.3815 | Surface SNAP-GIPR expression ([3]; replicate 13): 0.0633 | Surface SNAP-GIPR expression ([3]; replicate 14): 0.2489 | Surface SNAP-GIPR expression ([3]; replicate 15): 0.3401 | Surface SNAP-GIPR expression ([3]; replicate 16): 0.3428 | Surface SNAP-GIPR expression ([3]; replicate 17): 0.3498 | Surface SNAP-GIPR expression ([3]; replicate 18): 0.3062 | Surface SNAP-GIPR expression ([3]; replicate 19): 0.4941 | Surface SNAP-GIPR expression ([3]; replicate 20): 0.4147 | Surface SNAP-GIPR expression ([3]; replicate 21): 0.448 | Surface SNAP-GIPR expression ([3]; replicate 22): 0.3466 | Surface SNAP-GIPR expression ([3]; replicate 23): 0.3211 | Surface SNAP-GIPR expression ([3]; replicate 24): 0.3185 | Surface SNAP-GIPR expression ([3]; replicate 25): 0.3831 | Surface SNAP-GIPR expression ([3]; replicate 26): 0.4894 | Surface SNAP-GIPR expression ([3]; replicate 27): 0.2936 | Surface SNAP-GIPR expression ([3]; replicate 28): 0.2968 | Surface SNAP-GIPR expression ([3]; replicate 29): 0.3488 | Surface SNAP-GIPR expression ([3]; replicate 30): 0.3484 | Surface SNAP-GIPR expression ([3]; replicate 31): 0.4442 | Surface SNAP-GIPR expression ([3]; replicate 32): 0.3528 | Surface SNAP-GIPR expression ([3]; replicate 33): 0.3442 | Surface SNAP-GIPR expression ([3]; replicate 34): 0.4073 | Surface SNAP-GIPR expression ([3]; replicate 35): 0.5179 | Surface SNAP-GIPR expression ([3]; replicate 36): 0.2819 | Surface SNAP-GIPR expression ([3]; replicate 37): 0.3273 | Surface SNAP-GIPR expression ([3]; replicate 38): 0.3893 | Surface SNAP-GIPR expression ([3]; replicate 39): 0.3839 | Surface SNAP-GIPR expression ([3]; replicate 40): 0.3508 | Surface SNAP-GIPR expression ([3]; replicate 41): 0.4598 | INS-1 cAMP (100 nM) [4]: -0.04979 | +GIP internalisation (100 nM) [5]: 0.1813 | GIP-specific internalisation (100 nM) [5]: -0.007972 | Constitutive internalisation (100 nM) [5]: 0.1892 | Surface expression [5]: 0.3493 | Internalisation, +GIP [5]: 51.2548 | Internalisation, GIP-only [5]: -3.738 | Internalisation, Vehicle [5]: 54.9926 | Surface expression [6]: 0.5789

B2: R101H (protein)
chain: RAETGSKGQTAGELYQRWERYRRECQETLAAAEPPSGLACNGSFDMYVCWDYAAPNATARASCPWYLPWHHHVAAGFVLHQCGSDGQWGLWRDHTQCENPEKNEAFLDQRLILERLQVMYTVGYSLSLATLLLALLILSLFRRLHCTRNYIHINLFTSFMLRAAAILSRDRLLPRPGPYLGDQALALWNQALAACRTAQIVTQYCVGANYTWLLVEGVYLHSLLVLVGGSEEGHFRYYLLLGWGAPALFVIPWVIVRYLYENTQCWERNEVKAIWWIIRTPILMTILINFLIFIRILGILLSKLRTRQMRCRDYRLRLARSTLTLVPLLGVHEVVFAPVTEEQARGALRFAKLGFEIFLSSFQGFLVSVLYCFINKEVQSEIRRGWHHCRLRRSLGEEQRQLPERAFRALPSGSGPGEVPTSRGLSSGTLPGPGNEASRELESYC
AD293 100 pM HTRF [1]: -0.001017 | AD293 100 nM HTRF [1]: 0.2474 | AD293 100 pM cADDis [2]: 6.465 | AD293 100 nM cADDis [2]: 17.19 | AD293 Surface [3, 7]: 0.3592 | AD293 Surface ([3]; paired with cAMP 100 pM): 0.3592 | Surface SNAP-GIPR expression ([3]; replicate 1): 0.3042 | Surface SNAP-GIPR expression ([3]; replicate 2): 0.5275 | Surface SNAP-GIPR expression ([3]; replicate 3): 0.05814 | Surface SNAP-GIPR expression ([3]; replicate 4): 0.1831 | Surface SNAP-GIPR expression ([3]; replicate 5): 0.7685 | Surface SNAP-GIPR expression ([3]; replicate 6): 0.323 | Surface SNAP-GIPR expression ([3]; replicate 7): 0.4744 | Surface SNAP-GIPR expression ([3]; replicate 8): 0.4381 | Surface SNAP-GIPR expression ([3]; replicate 9): 0.4341 | Surface SNAP-GIPR expression ([3]; replicate 10): 0.6442 | Surface SNAP-GIPR expression ([3]; replicate 11): 0.4281 | Surface SNAP-GIPR expression ([3]; replicate 12): 0.4464 | Surface SNAP-GIPR expression ([3]; replicate 13): 0.04565 | Surface SNAP-GIPR expression ([3]; replicate 14): 0.1907 | Surface SNAP-GIPR expression ([3]; replicate 15): 0.4569 | Surface SNAP-GIPR expression ([3]; replicate 16): 0.5164 | Surface SNAP-GIPR expression ([3]; replicate 17): 0.5151 | Surface SNAP-GIPR expression ([3]; replicate 18): 0.4251 | Surface SNAP-GIPR expression ([3]; replicate 19): 0.384 | Surface SNAP-GIPR expression ([3]; replicate 20): 0.5015 | Surface SNAP-GIPR expression ([3]; replicate 21): 0.5316 | Surface SNAP-GIPR expression ([3]; replicate 22): 0.4149 | Surface SNAP-GIPR expression ([3]; replicate 23): 0.4406 | Surface SNAP-GIPR expression ([3]; replicate 24): 0.4166 | Surface SNAP-GIPR expression ([3]; replicate 25): 0.3346 | Surface SNAP-GIPR expression ([3]; replicate 26): 0.3683 | Surface SNAP-GIPR expression ([3]; replicate 27): 0.2116 | Surface SNAP-GIPR expression ([3]; replicate 28): 0.1755 | Surface SNAP-GIPR expression ([3]; replicate 29): 0.2709 | Surface SNAP-GIPR expression ([3]; replicate 30): 0.3405 | Surface SNAP-GIPR expression ([3]; replicate 31): 0.1773 | Surface SNAP-GIPR expression ([3]; replicate 32): 0.3176 | Surface SNAP-GIPR expression ([3]; replicate 33): 0.2814 | Surface SNAP-GIPR expression ([3]; replicate 34): 0.3758 | Surface SNAP-GIPR expression ([3]; replicate 35): 0.422 | Surface SNAP-GIPR expression ([3]; replicate 36): 0.4366 | Surface SNAP-GIPR expression ([3]; replicate 37): 0.2975 | Surface SNAP-GIPR expression ([3]; replicate 38): 0.1954 | Surface SNAP-GIPR expression ([3]; replicate 39): 0.2342 | Surface SNAP-GIPR expression ([3]; replicate 40): 0.2038 | Surface SNAP-GIPR expression ([3]; replicate 41): 0.2137 | INS-1 cAMP (100 nM) [4]: -0.01312 | +GIP internalisation (100 nM) [5]: 0.1328 | GIP-specific internalisation (100 nM) [5]: 0.01912 | Constitutive internalisation (100 nM) [5]: 0.1137 | Surface expression [5]: 0.2712 | Internalisation, +GIP [5]: 49.9522 | Internalisation, GIP-only [5]: 4.89 | Internalisation, Vehicle [5]: 45.062 | Surface expression [6]: 0.19
